In article PMC6497099, “Structural basis for oligomerization of the prokaryotic peptide transporter PepTSo2” (Acta Crystallographica. Section F, Structural Biology …, 2019):

Assays:
[1] = target: the molecule itself; experiment: SEC; purified PepTSo2 in DDM-containing buffer, Superose 6 Increase column, tryptophan fluorescence (excitation 280 nm, emission 350 nm)
[2] = target: the molecule itself; experiment: SEC; fluorescence-detection SEC (FSEC) of the DDM-solubilised supernatant of E. coli cells mixed with the His tag-specific probe P3NTA (excitation 482 nm, emission 520 nm)

Protein | stoichiometry N [1] | stoichiometry N [2]
PepTSo2 from Shewanella oneidensis, purified, His6 tag cleaved by TEV protease (natural protein, S. oneidensis, full-length PepTSo2, Shewanella oneidensis, UniProt Q8EHE6; Detergent-solubilised (DDM) for SEC; in Salipro nanoparticles (saposin A, DMPG) for cryo-EM; in monoolein lipidic cubic phase for crystals; also called tetrameric PepTSo2; purified PepTSo2; source: E. coli Rosetta 2 (DE3), purified (DDM solubilisation, Ni-NTA, TEV cleavage, second Ni-NTA, SEC); not shown: His6, C-terminal, cleaved) MTLGTNQVSKTHSFMTVSLIELWERFGYYGMQALIVYFMVQRLGFDDSRANLVWSACAALIYVSPAIGGWVGDKILGTKRTMLLGAGILSVGYALMTVPTENTWFMFSALGVIVVGNGLFKPNAGNLVRKIYEGDDSKIDSAFTIYYMAVNVGSTFSMLLTPWIKDYVNAQYGNEFGWHAAFAVCCVGILVGLGNYALMHKSLANYGSEPDTRPVNKKSLAIVLALAALSVVASAIILEYEDVARVFVYAAGVAVLGIFFHLIRTSEPSERAGLIAALILTVQTVFFFIFYQQMSTSLALFALRNVDWDFQVFGTHLWTWSPAQFQALNPIWIMVLSPVLAWSYSWAGRNNKDFSIAAKFALGFAVVAIGFFIYGFAGQFAVNGKTSSWVMIWGYASYSLGELLVSGLGLAMIARYVPARMGGFMMGAYFVASGISQYLGGVVANFASVPQDLVDPLQTLPVYTNLFNKLGVAAVVCTIIALAVLPLMRRLTESHHAHSSIENNAAASLRDVKAEQLESSGENLYFQ | 4 | 
C-terminally His6-tagged full-length PepTSo2 (tag kept, FSEC screening) (natural protein, S. oneidensis, full-length PepTSo2, Shewanella oneidensis, UniProt Q8EHE6; cloning artifact with the TEV protease site, between PepTSo2 and the His6 tag (not cleaved in this experiment); Detected in FSEC by the histidine tag-specific fluorescent probe P3NTA; also called His6-tagged PepTSo2; His6 construct; source: E. coli Rosetta 2 (DE3) or C41 (DE3) with pRARE, DDM-solubilised supernatant of disrupted cells; …) MTLGTNQVSKTHSFMTVSLIELWERFGYYGMQALIVYFMVQRLGFDDSRANLVWSACAALIYVSPAIGGWVGDKILGTKRTMLLGAGILSVGYALMTVPTENTWFMFSALGVIVVGNGLFKPNAGNLVRKIYEGDDSKIDSAFTIYYMAVNVGSTFSMLLTPWIKDYVNAQYGNEFGWHAAFAVCCVGILVGLGNYALMHKSLANYGSEPDTRPVNKKSLAIVLALAALSVVASAIILEYEDVARVFVYAAGVAVLGIFFHLIRTSEPSERAGLIAALILTVQTVFFFIFYQQMSTSLALFALRNVDWDFQVFGTHLWTWSPAQFQALNPIWIMVLSPVLAWSYSWAGRNNKDFSIAAKFALGFAVVAIGFFIYGFAGQFAVNGKTSSWVMIWGYASYSLGELLVSGLGLAMIARYVPARMGGFMMGAYFVASGISQYLGGVVANFASVPQDLVDPLQTLPVYTNLFNKLGVAAVVCTIIALAVLPLMRRLTESHHAHSSIENNAAASLRDVKAEQLESSGENLYFQGQFTSSV |  | 4
